Paper PMC12747287, “Human O-GlcNAcase catalytic-stalk dimer anchors flexible histone binding domains” (Research Square, 2025)

Molecular target: T1, full length human O-GlcNAcase, long isoform (OGA-L) (human, UniProt O60502 1-916)
T1 construct: human O-GlcNAcase, long isoform (OGA-L), 103 kDa, full length; Dimer in the cryo-EM structure; The methods name an anti-c-Myc antibody beside the anti-His6 antibody; the 'C-term' tag may be c-Myc; also called hOGA; full-length OGA; source: E. coli TOP10 (pBAD/HisA, codon optimized), purified (Talon resin for the arrays; HisTrap and size-exclusion chromatography for cryo-EM); not shown: His6, …
T1 sequence (looked up): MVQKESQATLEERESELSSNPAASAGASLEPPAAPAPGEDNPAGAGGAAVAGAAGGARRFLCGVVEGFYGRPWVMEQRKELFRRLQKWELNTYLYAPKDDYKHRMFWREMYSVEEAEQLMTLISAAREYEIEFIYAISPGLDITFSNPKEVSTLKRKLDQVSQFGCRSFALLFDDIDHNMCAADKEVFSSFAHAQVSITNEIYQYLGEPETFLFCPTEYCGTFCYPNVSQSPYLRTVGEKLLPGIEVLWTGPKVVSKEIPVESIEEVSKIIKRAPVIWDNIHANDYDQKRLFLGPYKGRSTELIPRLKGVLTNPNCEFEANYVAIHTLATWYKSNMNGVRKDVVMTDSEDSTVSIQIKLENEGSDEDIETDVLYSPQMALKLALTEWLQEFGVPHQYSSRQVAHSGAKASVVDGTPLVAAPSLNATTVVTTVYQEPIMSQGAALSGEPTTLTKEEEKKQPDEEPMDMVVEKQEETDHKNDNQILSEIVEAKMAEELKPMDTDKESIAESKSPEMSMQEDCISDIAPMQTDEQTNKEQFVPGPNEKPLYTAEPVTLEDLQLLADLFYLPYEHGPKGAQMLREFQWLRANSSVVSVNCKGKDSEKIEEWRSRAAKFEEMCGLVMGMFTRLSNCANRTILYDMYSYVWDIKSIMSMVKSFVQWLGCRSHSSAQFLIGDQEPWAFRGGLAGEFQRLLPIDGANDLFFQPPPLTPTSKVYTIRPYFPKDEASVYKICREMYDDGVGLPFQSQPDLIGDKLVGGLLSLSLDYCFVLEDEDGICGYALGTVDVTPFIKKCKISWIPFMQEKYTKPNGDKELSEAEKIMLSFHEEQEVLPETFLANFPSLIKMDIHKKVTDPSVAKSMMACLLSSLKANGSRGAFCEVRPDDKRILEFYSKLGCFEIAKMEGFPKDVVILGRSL
Test: peptide or protein array; Active Motif MODified Histone Peptide Array (384 modified histone peptides in duplicate, on the array); 100 nM protein in 20 mM Tris pH 7.5, 1 mM DTT, 0.5 mg/mL BSA, RT 1 hour; detected by anti-His6 antibody (also C-term tag antibody) and IR-800 secondary antibody
Conditions: both partners purified

- binding result: binds
B1: histone H4 1-19 peptide, K5,8,12,16Ac (peptide, UniProt P62805 2-20, looked up)
peptide: SGRGKGGKGLGKGGAKRHR
modifications: acetyl-lysine at K5, K8, K12 and K16
notes: histone H4 tail peptide, residues 1-19; also called H4 1-19 K5,8,12,16Ac; H4K^5,8,12,16Ac; source: bought: Active Motif MODified Histone Peptide Array (peptide on the array)
